Data from patent US20180215825A1 (BEIGENE, published 2018).

T1: human FcγRIIAH131 expressed on HEK293 cells (human, UniProt P12318 34-317)
T1 construct: whole, on cells
T1 sequence (looked up): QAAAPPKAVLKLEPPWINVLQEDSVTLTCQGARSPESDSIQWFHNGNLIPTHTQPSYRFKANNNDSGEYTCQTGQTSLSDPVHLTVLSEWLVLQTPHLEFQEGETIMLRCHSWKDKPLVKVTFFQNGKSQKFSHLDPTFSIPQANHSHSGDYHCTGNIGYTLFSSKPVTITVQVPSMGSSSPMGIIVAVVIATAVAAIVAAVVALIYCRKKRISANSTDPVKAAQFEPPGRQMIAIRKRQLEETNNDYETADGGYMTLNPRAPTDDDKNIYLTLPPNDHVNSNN

T2: human FcγRIIAR131 expressed on HEK293 cells (human, UniProt P12318 34-317)
T2 construct: whole, on cells
T2 sequence (looked up): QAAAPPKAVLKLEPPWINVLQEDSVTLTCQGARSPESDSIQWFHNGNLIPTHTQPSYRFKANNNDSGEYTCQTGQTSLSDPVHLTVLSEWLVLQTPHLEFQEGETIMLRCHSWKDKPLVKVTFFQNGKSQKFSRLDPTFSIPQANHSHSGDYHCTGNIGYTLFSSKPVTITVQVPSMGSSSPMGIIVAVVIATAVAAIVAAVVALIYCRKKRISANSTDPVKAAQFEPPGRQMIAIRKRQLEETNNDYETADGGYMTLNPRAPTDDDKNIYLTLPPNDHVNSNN

T3: human FcγRIIB expressed on HEK293 cells (human, UniProt P31994 43-310)
T3 construct: whole, on cells
T3 sequence (looked up): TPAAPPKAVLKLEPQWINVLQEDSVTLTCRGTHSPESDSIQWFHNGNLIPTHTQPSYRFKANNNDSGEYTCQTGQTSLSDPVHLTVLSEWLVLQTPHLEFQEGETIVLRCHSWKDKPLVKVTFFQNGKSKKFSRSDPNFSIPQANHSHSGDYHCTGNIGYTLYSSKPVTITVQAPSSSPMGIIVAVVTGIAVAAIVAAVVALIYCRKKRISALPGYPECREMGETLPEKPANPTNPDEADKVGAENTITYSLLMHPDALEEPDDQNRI


Experiments:
[1] = biological target: T4, human PD-L1, full length, expressed on cells (human, UniProt Q9NZQ7 19-290); assay: cell-based or functional assay
[2] = biological target: T5, human FcγRI expressed on HEK293 cells (human, UniProt P12314 16-374); assay: FACS, monomeric mAb on FcγR-expressing HEK293 cells
T5 construct: whole, on cells; Co-expressed with FcRγ subunit
Experimental: (§1) Bindings of humanized anti-PD-L1 in various IgG1 formats (wt, IgG1mc, IgG1mf, SEQ. NO. 27-29) to FcγRs were also determined by flow cytometry. In brief, a series of stable HEK293 transfectants expressing human FcγRs were established. These stable cell lines expressed FcγRI, FcγRIIAH131, FcγRIIAR131, FcγRIIB, FcγRIIIAF158 or FcγRIIIAV158, respectively. Multi-subunit FcγRs (i.e., FcγRI and FcγRIIIA) were co-expressed with FcRγ subunit.

[3] = biological target: T1, human FcγRIIAH131 expressed on HEK293 …; assay: as above
Experimental: as §1

[4] = biological target: T2, human FcγRIIAR131 expressed on HEK293 …; assay: as above
Experimental: as §1

[5] = biological target: T3, human FcγRIIB expressed on HEK293 cells; assay: as above
Experimental: as §1

[6] = biological target: T6, human FcγRIIIAF158 expressed on HEK293 cells (human, UniProt P08637 17-254); assay: as above
T6 construct: whole, on cells; Co-expressed with FcRγ subunit
Experimental: as §1

[7] = biological target: T7, human FcγRIIIAV158 expressed on cells (human, UniProt P08637 17-254); assay: as above
T7 construct: whole, on cells; Co-expressed with FcRγ subunit; on HEK293 cells in the FACS assays, on NK92MI/CD16V cells in the ADCC assay; also called CD16 (V158 allele)
Experimental: as §1

[8] = biological target: T4, human PD-L1, full length, expressed on …; assay: FACS competition with CD80/Fc on HEK293/PD-L1 cells
[9] = biological target: T3, human FcγRIIB expressed on HEK293 cells; assay: FACS, monomeric mAb on FcγR-expressing HEK293 cells, goat anti-human IgG F(ab')2-Alexa Fluor 488 detection
Experimental: as §1

[10] = biological target: T5, human FcγRI expressed on HEK293 cells; assay: FACS, 10 µg/mL mAb as immune complex with biotin-PD-L1/His and neutravidin on FcγR-expressing HEK293 cells
Text: (§2) Such bindings are thought to be more relevant under physiological condition, as the binding strength between monomeric γFc and most of the FcγRs is very weak. Human immune system also takes advantage of this mechanism to avoid non-specific activation of FcγRs by monomeric IgG which are present at high levels in serum.

[11] = biological target: T1, human FcγRIIAH131 expressed on HEK293 …; assay: as above
Text: as §2

[12] = biological target: T2, human FcγRIIAR131 expressed on HEK293 …; assay: as above
Text: as §2

[13] = biological target: T3, human FcγRIIB expressed on HEK293 cells; assay: as above
Text: as §2

[14] = biological target: T6, human FcγRIIIAF158 expressed on HEK293 …; assay: as above
Text: as §2

[15] = biological target: T7, human FcγRIIIAV158 expressed on cells; assay: as above
Text: as §2

T4 sequence (Q9NZQ7 19-290 limits assumed): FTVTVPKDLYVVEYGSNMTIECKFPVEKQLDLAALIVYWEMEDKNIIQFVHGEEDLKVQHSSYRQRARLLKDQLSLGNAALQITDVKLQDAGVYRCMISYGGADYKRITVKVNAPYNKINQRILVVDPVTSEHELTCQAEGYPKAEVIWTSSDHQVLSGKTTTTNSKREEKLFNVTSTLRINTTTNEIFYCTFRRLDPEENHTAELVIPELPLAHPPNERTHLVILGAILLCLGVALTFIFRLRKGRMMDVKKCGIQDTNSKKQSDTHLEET
T7 sequence (P08637 17-254 F176V limits assumed): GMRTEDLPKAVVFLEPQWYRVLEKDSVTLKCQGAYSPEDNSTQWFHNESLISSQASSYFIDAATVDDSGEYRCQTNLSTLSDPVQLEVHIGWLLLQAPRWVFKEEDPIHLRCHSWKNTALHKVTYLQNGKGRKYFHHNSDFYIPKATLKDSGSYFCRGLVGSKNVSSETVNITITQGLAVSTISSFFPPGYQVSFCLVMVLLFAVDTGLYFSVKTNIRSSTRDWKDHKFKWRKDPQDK
T6 sequence (P08637 17-254): as the sequence (P08637 17-254 F176V limits assumed) above, with V160F counted along it
T5 sequence (P12314 16-374): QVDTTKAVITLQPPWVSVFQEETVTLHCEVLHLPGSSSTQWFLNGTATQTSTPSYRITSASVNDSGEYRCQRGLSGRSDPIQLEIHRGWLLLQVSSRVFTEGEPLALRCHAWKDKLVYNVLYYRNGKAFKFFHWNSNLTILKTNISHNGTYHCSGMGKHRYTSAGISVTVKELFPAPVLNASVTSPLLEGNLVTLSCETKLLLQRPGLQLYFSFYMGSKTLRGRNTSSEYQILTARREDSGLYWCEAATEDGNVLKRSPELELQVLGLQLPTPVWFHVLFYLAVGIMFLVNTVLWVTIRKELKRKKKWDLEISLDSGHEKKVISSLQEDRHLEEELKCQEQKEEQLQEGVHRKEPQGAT

IL-2 release in HuT78/P3Z: IC50 [1] [µg/mL] | IL-2 release in HuT78/P3Z: Max inhibition [1] [%] | IL-2 release in HuT78/PD-1: EC50 [1] [µg/mL] | IL-2 release in HuT78/PD-1: Top line [1] [pg/mL] | MFI [2] [MFI] | MFI [3] [MFI] | MFI [4] [MFI] | MFI [5] [MFI] | MFI [6] [MFI] | MFI [7] [MFI] | IC50 [8] [µg/mL] | Max inhibition [8] [%] | binding result [9] | MFI [10] [MFI] | MFI [11] [MFI] | MFI [12] [MFI] | MFI [13] [MFI] | MFI [14] [MFI] | MFI [15] [MFI] | Binder
0.037 | 99 | 0.075 | 287 | 4.56 | 6.12 | 3.99 | 3.73 | 5.09 | 3.91 | 0.118 | 100 | no binding | 7.11 | 7.27 | 4.92 | 5 | 6.76 | 4.83 | hu333-4B2-IgG1mf (antibody) heavy: EVQLVESGGGLVQPGGSLRLSCAVSGFSLTSYGVHWVRQAPGKGLEWVAVIWAGGSTNYADSVKGRFTISKDTSKNTVYLQMNSLRAEDTAVYYCAKPYGTSAMDYWGQGTLVTVSSASTKGPSVFPLAPSSKSTSGGTAALGCLVKDYFPEPVTVSWNSGALTSGVHTFPAVLQSSGLYSLSSVVTVPSSSLGTQTYICNVNHKPSNTKVDKKVEPKSCDKTHTCPPCPAPPAAGPSVFLFPPKPKDTLMISRTPEVTCVVVDVSHEDPEVKFNWYVDGVEVHNAKTKPREEQYNSTYRVVSVLTVLHQDWLNGKEYKCKVSNKALAAPIEKTISKAKGQPREPQVYTLPPSRDELTKNQVSLTCLVKGFYPSDIAVEWESNGQPENNYKTTPPVLDSDGSFFLYSKLTVDKSRWQQGNVFSCSVMHEALHNHYTQKSLSLSPGK light: DIQMTQSPSSLSASVGDRVTITCKASQDVGIVVAWYQQKPGKAPKLLIYWASIRHTGVPSRFSGSGSGTEFTLTISSLQPDDFATYYCQQYSNYPLYTFGQGTKVEIKRTVAAPSVFIFPPSDEQLKSGTASVVCLLNNFYPREAKVQWKVDNALQSGNSQESVTEQDSKDSTYSLSSTLTLSKADYEKHKVYACEVTHQGLSSPVTKSFNRGEC
– | – | – | – | 1170 | 40.5 | 15.1 | 19 | 29.4 | 91.7 | – | – | – | 3260 | 599 | 159 | 539 | 74.2 | 309 | hu333-4A2-IgG1wt (antibody, light chain constant region (kappa) not tied to an entry for this form) heavy: not shown VL: DIQMTQSPSSLSASVGDRVTITCKASQDVGIVVAWYQQKPGKAPKLLIYWASIRHTGVPSRFSGSGSGTEFTLTISSLQPDDFATYYCQQYSNYPLYTFGQGTKVEIK

Second part, the binder before the results:

Binder | IL-2 release in HuT78/P3Z: IC50 [1] [µg/mL] | IL-2 release in HuT78/P3Z: Max inhibition [1] [%] | IL-2 release in HuT78/PD-1: EC50 [1] [µg/mL] | IL-2 release in HuT78/PD-1: Top line [1] [pg/mL] | MFI [2] [MFI] | MFI [3] [MFI] | MFI [4] [MFI] | MFI [5] [MFI] | MFI [6] [MFI] | MFI [7] [MFI] | IC50 [8] [µg/mL] | Max inhibition [8] [%] | binding result [9] | MFI [10] [MFI] | MFI [11] [MFI] | MFI [12] [MFI] | MFI [13] [MFI] | MFI [14] [MFI] | MFI [15] [MFI]
hu333-4B2-IgG1mc (antibody) heavy: EVQLVESGGGLVQPGGSLRLSCAVSGFSLTSYGVHWVRQAPGKGLEWVAVIWAGGSTNYADSVKGRFTISKDTSKNTVYLQMNSLRAEDTAVYYCAKPYGTSAMDYWGQGTLVTVSSASTKGPSVFPLAPSSKSTSGGTAALGCLVKDYFPEPVTVSWNSGALTSGVHTFPAVLQSSGLYSLSSVVTVPSSSLGTQTYICNVNHKPSNTKVDKKVEPKSCDKTHTCPPCPAPPAAAPSVFLFPPKPKDTLMISRTPEVTCVVVDVSHEDPEVKFNWYVDGVEVHNAKTKPREEQYNSTYRVVSVLTVLHQDWLNGKEYKCKVSNKALAAPIEKTISKAKGQPREPQVYTLPPSRDELTKNQVSLTCLVKGFYPSDIAVEWESNGQPENNYKTTPPVLDSDGSFFLYSKLTVDKSRWQQGNVFSCSVMHEALHNHYTQKSLSLSPGK light: DIQMTQSPSSLSASVGDRVTITCKASQDVGIVVAWYQQKPGKAPKLLIYWASIRHTGVPSRFSGSGSGTEFTLTISSLQPDDFATYYCQQYSNYPLYTFGQGTKVEIKRTVAAPSVFIFPPSDEQLKSGTASVVCLLNNFYPREAKVQWKVDNALQSGNSQESVTEQDSKDSTYSLSSTLTLSKADYEKHKVYACEVTHQGLSSPVTKSFNRGEC | 0.039 | 99 | 0.084 | 300 | 4.78 | 6.16 | 3.64 | 4.49 | 5.42 | 4.14 | 0.103 | 100 | no binding | 7.01 | 8.09 | 5.28 | 5.03 | 6.81 | 4.89
hu333-4A2-IgG1mc (antibody) heavy: EVQLVESGGGLVQPGGSLRLSCAVSGFSLTSYGVHWVRQAPGKGLEWVAVIWAGGSTNYVDSVKGRFTISKDNAKNTVYLQMNSLRAEDTAVYYCAKPYGTSAMDYWGQGTLVTVSSASTKGPSVFPLAPSSKSTSGGTAALGCLVKDYFPEPVTVSWNSGALTSGVHTFPAVLQSSGLYSLSSVVTVPSSSLGTQTYICNVNHKPSNTKVDKKVEPKSCDKTHTCPPCPAPPAAAPSVFLFPPKPKDTLMISRTPEVTCVVVDVSHEDPEVKFNWYVDGVEVHNAKTKPREEQYNSTYRVVSVLTVLHQDWLNGKEYKCKVSNKALAAPIEKTISKAKGQPREPQVYTLPPSRDELTKNQVSLTCLVKGFYPSDIAVEWESNGQPENNYKTTPPVLDSDGSFFLYSKLTVDKSRWQQGNVFSCSVMHEALHNHYTQKSLSLSPGK light: DIQMTQSPSSLSASVGDRVTITCKASQDVGIVVAWYQQKPGKAPKLLIYWASIRHTGVPSRFSGSGSGTEFTLTISSLQPDDFATYYCQQYSNYPLYTFGQGTKVEIKRTVAAPSVFIFPPSDEQLKSGTASVVCLLNNFYPREAKVQWKVDNALQSGNSQESVTEQDSKDSTYSLSSTLTLSKADYEKHKVYACEVTHQGLSSPVTKSFNRGEC | 0.045 | 99 | 0.087 | 299 | 4.29 | 5.78 | 3.8 | 3.71 | 5.2 | 3.87 | 0.078 | 100 | no binding | 7 | 7.53 | 5.38 | 5.05 | 6.44 | 5.43
